Data on one protein can be found in paper PMC3615049 (Biochemistry, 2013).

Substrate in data set [1]: COC1=CC(=O)C(C)=C(C/C=C(\C)CCC=C(C)C)C1=O
Nature of the data set: purified protein. The conditions noted are these: 200 μM NADH, 5 μM enzyme, 25 °C, pH 7.0. Format: biochemical, Homo sapiens.

Substrate in data set [2]: COC1=CC(=O)C(C)=CC1=O
Nature of the data set: purified protein. Format: biochemical, Homo sapiens. The conditions noted are these: 200 μM NADH, 5 μM enzyme, 20 mM Tris pH 7.0 in H2O, 25 °C.

The data set “SEC” concerns the molecule itself. Nature of the data set: SEC.

B1: GB1-hCLK-1 (human Clock-1 with an N-terminal immunoglobulin binding domain of protein G) (enzyme, UniProt Q99807 39-217, looked up)
chain: MTLDNISRAAVDRIIRVDHAGEYGANRIYAGQMAVLGRTSVGPVIQKMWDQEKDHLKKFNELMVTFRVRPTVLMPLWNVLGFALGAGTALLGKEGAMACTVAVEESIAHHYNNQIRTLMEEDPEKYEELLQLIKKFRDEELEHHDIGLDHDAELAPAYAVLKSIIQAGCRVAIYLSERL
In general, Km refers to the substrate concentration at which the rate is half of its maximum. One may read the Vmax as the rate approached at saturating substrate. By kcat/Km is commonly meant the turnover number divided by the Michaelis constant. The stoichiometry N is the number of molecules, sites or subunits per partner or assembly. Consider B1, for which, in the data set “purified protein [1]”, the Michaelis-Menten constant (Km) was 33.8 µM, the maximum rate (Vmax) is 39.2 µM/min and the kcat/Km is 3870 M⁻¹ s⁻¹. Further, in the data set “purified protein [2]”, the Michaelis constant (Km) was 68.1 µM, the maximum rate (Vmax) amounted to 12.8 µM/min and the catalytic efficiency (kcat/Km) came out at 627 M⁻¹ s⁻¹. In addition, the “stoichiometry N” value in the data set “SEC” was determined as 2.
